How the values were obtained:
[1] = target: PTP-δ_D1D2 (human), Trx-His6-tagged (human); assay: ITC; VP-ITC at 25 °C; 50 mM Tris-HCl pH 7.5, 100 mM NaCl, 1 mM EDTA, 1 mM DTT; liprin-α fragments at 200 μM injected into LAR-RPTP fragments at 20 μM; one-site binding model; N-terminal tags kept
[2] = target: PTP-σ_D1D2 (human), Trx-His6-tagged (human); assay: as above
[3] = target: the molecule itself; assay: cell-based or functional assay
[4] = target: T1, liprin-α2_SAM123 (C-terminal SAM repeats of human liprin-α2), Trx-His6-tagged (human, UniProt O75334 866-1193); assay: ITC; VP-ITC at 25 °C; 50 mM Tris-HCl pH 7.5, 100 mM NaCl, 1 mM EDTA, 1 mM DTT; liprin-α fragments at 200 μM injected into LAR-RPTP fragments at 20 μM; one-site binding model; N-terminal tags kept; settings: both partners purified
T1 construct: liprin-α2, human, the C-terminal three SAM domains (SAM123); source: E. coli Rosetta BL21(DE3), purified (Ni-NTA, Superdex-200); not shown: Trx, N-terminal, kept; His6, N-terminal, kept
T1 sequence (O75334 866-1193): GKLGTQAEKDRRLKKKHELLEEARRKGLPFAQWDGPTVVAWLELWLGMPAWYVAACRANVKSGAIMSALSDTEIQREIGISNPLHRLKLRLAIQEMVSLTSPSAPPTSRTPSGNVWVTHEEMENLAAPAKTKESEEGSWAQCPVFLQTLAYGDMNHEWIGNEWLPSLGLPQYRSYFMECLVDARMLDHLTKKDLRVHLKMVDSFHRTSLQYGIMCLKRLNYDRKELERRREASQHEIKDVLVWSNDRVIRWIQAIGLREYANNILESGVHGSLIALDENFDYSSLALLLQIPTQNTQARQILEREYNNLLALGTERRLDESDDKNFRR

Chain of PTP-σ_D1D2 (human), Trx-His6-tagged (human) (Q13332 1393-1948): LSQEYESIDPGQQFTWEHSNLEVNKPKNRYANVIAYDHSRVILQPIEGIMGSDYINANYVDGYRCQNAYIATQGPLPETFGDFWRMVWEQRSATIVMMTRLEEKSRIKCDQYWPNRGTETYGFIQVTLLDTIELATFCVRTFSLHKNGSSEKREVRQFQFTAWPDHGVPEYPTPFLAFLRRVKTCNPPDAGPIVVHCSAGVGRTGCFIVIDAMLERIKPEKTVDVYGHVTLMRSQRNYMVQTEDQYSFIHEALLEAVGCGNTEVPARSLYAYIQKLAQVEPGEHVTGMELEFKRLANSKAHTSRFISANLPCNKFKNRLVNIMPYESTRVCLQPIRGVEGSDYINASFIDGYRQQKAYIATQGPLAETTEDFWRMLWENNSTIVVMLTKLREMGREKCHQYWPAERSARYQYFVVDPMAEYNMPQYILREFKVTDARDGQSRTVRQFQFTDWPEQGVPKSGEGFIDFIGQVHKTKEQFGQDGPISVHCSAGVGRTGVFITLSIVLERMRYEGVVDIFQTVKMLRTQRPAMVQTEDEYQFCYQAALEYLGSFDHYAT
Chain of PTP-δ_D1D2 (human), Trx-His6-tagged (human) (P23468 1357-1912, stated change not applied): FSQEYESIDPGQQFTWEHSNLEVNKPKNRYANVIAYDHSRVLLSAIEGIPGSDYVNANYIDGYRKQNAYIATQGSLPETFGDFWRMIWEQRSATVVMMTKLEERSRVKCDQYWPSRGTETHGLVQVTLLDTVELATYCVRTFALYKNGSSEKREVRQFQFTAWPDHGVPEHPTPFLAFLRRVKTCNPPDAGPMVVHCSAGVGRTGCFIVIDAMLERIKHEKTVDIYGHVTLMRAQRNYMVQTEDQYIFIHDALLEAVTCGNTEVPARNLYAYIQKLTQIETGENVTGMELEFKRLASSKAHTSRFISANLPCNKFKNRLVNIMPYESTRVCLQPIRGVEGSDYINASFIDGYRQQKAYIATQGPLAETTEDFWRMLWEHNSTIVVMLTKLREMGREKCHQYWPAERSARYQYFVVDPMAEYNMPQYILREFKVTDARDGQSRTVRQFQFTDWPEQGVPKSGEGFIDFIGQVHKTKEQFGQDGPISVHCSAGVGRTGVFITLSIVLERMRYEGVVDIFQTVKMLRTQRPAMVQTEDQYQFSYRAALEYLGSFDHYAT

α2_SAM123ΔInsertion (liprin-α2_SAM123 with the insertion loop connecting SAM1 and SAM2 deleted) (from UniProt O75334 866-1193) (domain or fragment)
Kd [1]: 6.4 µM | Kd [2]: 2400 nM

B1: LAR_D1D2 L1539C/T1593C double-cysteine mutant (domain or fragment, human)
chain: IPITDLADNIERLKANDGLKFSQEYESIDPGQQFTWENSNLEVNKPKNRYANVIAYDHSRVILTSIDGVPGSDYINANYIDGYRKQNAYIATQGPLPETMGDFWRMVWEQRTATVVMMTRLEEKSRVKCDQYWPARGTETCGLIQVTLLDTVELATYTVRTFALHKSGSSEKRELRQFQFMAWPDHGVPEYPTPILAFLRRVKACNPCDAGPMVVHCSAGVGRTGCFIVIDAMLERMKHEKTVDIYGHVTCMRSQRNYMVQCEDQYVFIHEALLEAATCGHTEVPARNLYAHIQKLGQVPPGESVTAMELEFKLLASSKAHTSRFISANLPCNKFKNRLVNIMPYELTRVCLQPIRGVEGSDYINASFLDGYRQQKAYIATQGPLAESTEDFWRMLWEHNSTIIVMLTKLREMGREKCHQYWPAERSARYQYFVVDPMAEYNMPQYILREFKVTDARDGQSRTIRQFQFTDWPEQGVPKTGEGFIDFIGQVHKTKEQFGQDGPITVHCSAGVGRTGVFITLSIVLERMRYEGVVDMFQTVKTLRTQRPAMVQTEDQYQLCYRAALEYLGSFDHYAT
modifications: intermolecular disulfide bridges between the introduced cysteines (without reducing reagents)
in vitro phosphatase activity of the LAR_D1D2 dimer relative to the monomer fraction, with 2 mM DTT in the reaction buffer [3]: ~80% | in vitro phosphatase activity of the disulfide-linked LAR_D1D2 dimer relative to the monomeric mutant, reaction buffer without DTT [3]: ~40%

B2: LAR_D2 (D2 domain of human LAR), His6-SUMO-tagged (domain or fragment, UniProt P10586 1620-1907, looked up)
chain: LYAHIQKLGQVPPGESVTAMELEFKLLASSKAHTSRFISANLPCNKFKNRLVNIMPYELTRVCLQPIRGVEGSDYINASFLDGYRQQKAYIATQGPLAESTEDFWRMLWEHNSTIIVMLTKLREMGREKCHQYWPAERSARYQYFVVDPMAEYNMPQYILREFKVTDARDGQSRTIRQFQFTDWPEQGVPKTGEGFIDFIGQVHKTKEQFGQDGPITVHCSAGVGRTGVFITLSIVLERMRYEGVVDMFQTVKTLRTQRPAMVQTEDQYQLCYRAALEYLGSFDHYAT
notes: also called D2 domain alone; source: E. coli Rosetta BL21(DE3), purified (Ni-NTA, Superdex-200); not shown: His6, N-terminal, kept; SUMO, N-terminal, kept
Kd [4]: 14 ± 1 µM

From article PMC6954185 (Nature Communications, 2020)
